Legend:
[1] = molecular target: T1, human LAG-3-6*His tag recombinant fusion protein (human, UniProt P18627 23-450, biotin-labelled in panning and in Example 9); test: BLI Octet Red96, MV705-3 on AHC sensor, human LAG-3-6*His at 250 nM, 1:1 model
T1 construct: Bought protein; also called hLAG-3-6*his tag recombinant protein; human LAG-3-his tag recombinant fusion protein
T1 sequence: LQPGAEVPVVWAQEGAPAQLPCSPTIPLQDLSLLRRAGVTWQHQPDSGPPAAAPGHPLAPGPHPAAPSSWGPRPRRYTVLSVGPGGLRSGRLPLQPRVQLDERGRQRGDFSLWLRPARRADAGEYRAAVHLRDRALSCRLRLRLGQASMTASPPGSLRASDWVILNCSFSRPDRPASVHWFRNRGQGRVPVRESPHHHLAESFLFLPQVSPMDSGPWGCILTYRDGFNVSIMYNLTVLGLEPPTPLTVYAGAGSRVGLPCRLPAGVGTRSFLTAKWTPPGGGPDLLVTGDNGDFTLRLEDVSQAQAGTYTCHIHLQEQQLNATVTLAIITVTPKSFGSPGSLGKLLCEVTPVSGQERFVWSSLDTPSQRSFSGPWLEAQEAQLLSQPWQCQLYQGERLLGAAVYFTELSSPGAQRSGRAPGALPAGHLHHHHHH

[2] = molecular target: T1, human LAG-3-6*His tag recombinant …; test: BLI (Octet Red96), biotinylated hLAG-3-6*his on SA biosensor, antibody 100 µg/mL in solution, 1:2 binding model
[3] = molecular target: T2, human LAG-3 on the cell surface (human, UniProt P18627 23-525); test: cell-based or functional assay
T2 sequence (looked up): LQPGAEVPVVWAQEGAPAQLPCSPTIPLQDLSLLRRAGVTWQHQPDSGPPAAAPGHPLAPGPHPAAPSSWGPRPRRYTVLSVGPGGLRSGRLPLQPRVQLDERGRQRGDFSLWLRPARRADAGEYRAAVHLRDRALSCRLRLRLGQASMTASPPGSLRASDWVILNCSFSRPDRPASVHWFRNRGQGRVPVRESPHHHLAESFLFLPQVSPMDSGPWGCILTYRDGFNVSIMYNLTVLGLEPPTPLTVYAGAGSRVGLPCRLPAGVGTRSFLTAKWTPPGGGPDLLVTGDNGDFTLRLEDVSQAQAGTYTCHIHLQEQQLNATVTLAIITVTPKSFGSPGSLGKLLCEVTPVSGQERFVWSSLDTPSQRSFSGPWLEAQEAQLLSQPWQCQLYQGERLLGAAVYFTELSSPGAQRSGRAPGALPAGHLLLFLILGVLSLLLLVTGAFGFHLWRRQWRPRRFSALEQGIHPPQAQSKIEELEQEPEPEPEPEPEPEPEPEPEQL

[4] = molecular target: T3, recombinant mouse LAG-3-6*His tag fusion protein (mouse, UniProt Q61790 23-442); test: ELISA, antibody coated at 1 µg/ml, mouse LAG-3-6*His titrated, anti-His HRP
T3 construct: made in Expi293 cells from the mouse LAG-3 cDNA; also called mouse LAG-3 antigen
T3 sequence: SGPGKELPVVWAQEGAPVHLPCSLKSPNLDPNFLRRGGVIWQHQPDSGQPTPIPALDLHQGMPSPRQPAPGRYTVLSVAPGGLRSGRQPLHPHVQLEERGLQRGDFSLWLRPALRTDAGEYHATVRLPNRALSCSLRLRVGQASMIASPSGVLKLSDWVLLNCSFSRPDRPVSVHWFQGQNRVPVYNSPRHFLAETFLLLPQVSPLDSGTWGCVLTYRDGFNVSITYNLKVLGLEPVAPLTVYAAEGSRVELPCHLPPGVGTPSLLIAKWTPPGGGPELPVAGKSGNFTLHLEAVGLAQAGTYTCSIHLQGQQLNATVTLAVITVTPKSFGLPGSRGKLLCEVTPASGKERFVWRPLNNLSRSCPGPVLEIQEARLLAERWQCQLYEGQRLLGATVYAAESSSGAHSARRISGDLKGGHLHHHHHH

[5] = molecular target: T2, human LAG-3 on the cell surface; test: cell-based or functional assay; remark: listed apart in the source
[6] = molecular target: T4, human LAG-3-mFc recombinant fusion protein (human); test: flow cytometry, blocking of hLAG-3-mFc (10 µg/ml) binding to MHC class II on Daudi cells
T4 construct: also called hLAG-3-mFc
T4 chain: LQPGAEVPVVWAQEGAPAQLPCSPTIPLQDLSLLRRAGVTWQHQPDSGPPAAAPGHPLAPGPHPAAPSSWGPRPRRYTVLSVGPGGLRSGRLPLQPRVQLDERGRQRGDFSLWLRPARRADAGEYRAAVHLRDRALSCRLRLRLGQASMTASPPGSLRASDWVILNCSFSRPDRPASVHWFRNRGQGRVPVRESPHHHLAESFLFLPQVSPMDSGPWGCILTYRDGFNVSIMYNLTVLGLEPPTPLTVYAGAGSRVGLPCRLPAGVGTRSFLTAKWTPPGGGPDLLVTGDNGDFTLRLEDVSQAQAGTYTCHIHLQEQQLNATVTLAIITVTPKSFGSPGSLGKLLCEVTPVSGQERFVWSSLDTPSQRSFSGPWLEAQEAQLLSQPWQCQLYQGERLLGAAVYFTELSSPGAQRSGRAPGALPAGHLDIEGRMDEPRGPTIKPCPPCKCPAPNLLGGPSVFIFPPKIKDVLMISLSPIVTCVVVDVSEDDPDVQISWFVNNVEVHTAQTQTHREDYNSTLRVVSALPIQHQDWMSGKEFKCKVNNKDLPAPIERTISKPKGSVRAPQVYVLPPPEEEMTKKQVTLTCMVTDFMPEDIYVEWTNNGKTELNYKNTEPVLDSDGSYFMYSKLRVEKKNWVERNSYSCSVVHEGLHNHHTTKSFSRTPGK

[7] = molecular target: T1, human LAG-3-6*His tag recombinant …; test: SPR BIAcore T200, antibody on CM5 chip, human LAG-3-6*His 0.352 to 45 nM as analyte

B1: anti-human LAG-3 full human monoclonal antibody MV705-3 (antibody, human IgG4, V domains shown)
VH: EVQLLESGAEVKKPGASVKVSCKASGYTFTSYGISWVRQAPGQGLEWMGWISAYNGNTNYAQKLQGRVTMTTDTSTSTAYMELRSLRSDDTAVYYCARDGWWELLRPDDAFDIWGQGTTVTVSS
VL: QLVLTQSPSVSVSPGQTASITCSGDKLGDKYAYWYQQKPGQAPVLVIYYDSDRPSGIPERFSGSNSGNTATLTISRVEAGDEADYYCQVWDSSSDQVVFGGGTQLTVLG
notes: Full IgG4 with lambda light chain; also called MV705-3(DD + DD)
- koff [1]: < 1e-07 s⁻¹
- kon [1]: 13800 M⁻¹ s⁻¹
- Kd [2]: 4.83 nM
- koff [2]: 0.000442 s⁻¹
- kon [2]: 91600 M⁻¹ s⁻¹
- EC50 of NFAT reporter gene induction (bio-glo luciferase), LAG3/NFAT Reporter-Jurkat + Raji cells + superantigen [3]: 0.04 µg/mL
- EC50 [4]: 2.6 µg/mL
- EC50, ability to activate T cells in vitro (LAG3/NFAT Reporter-Jurkat) [5]: 0.13 µg/mL
- IC50 [6]: 2.8 µg/mL
- Kd [7]: 0.00851 nM
- koff [7]: 9.18e-07 s⁻¹
- kon [7]: 108000 M⁻¹ s⁻¹

— patent US20210147536A1 (MAB VENTURE BIOPHARM, published 2021)
